B1: LacS: steryl glycosidase LacS from S. solfataricus (SEQ ID NO.: 2) (protein, listed as Sulfolobus solfataricus)
chain: MYSFPNSFRFGWSQAGFQSEMGTPGSEDPNTDWYKWVHDPENMAAGLVSGDLPENGPGYWGNYKTFHDNAQKMGLKIARLNVEWSRIFPNPLPRPQNFDESKQDVTEVEINENELKRLDEYANKDALNHYREIFKDLKSRGLYFILNMYHWPLPLWLHDPIRVRRGDFTGPSGWLSTRTVYEFARFSAYIAWKFDDLVDEYSTMNEPNVVGGLGYVGVKSGFPPGYLSFELSRRAMYNIIQAHARAYDGIKSVSKKPVGIIYANSSFQPLTDKDMEAVEMAENDNRWWFFDAIIRGEITRGNEKIVRDDLKGRLDWIGVNYYTRTVVKRTEKGYVSLGGYGHGCERNSVSLAGLPTSDFGWEFFPEGLYDVLTKYWNRYHLYMYVTENGIADDADYQRPYYLVSHVYQVHRAINSGADVRGYLHWSLADNYEWASGFSMRFGLLKVDYNTKRLYWRPSALVYREIATNGAITDEIEHLNSVPPVKPLRH
B2: TL: steryl glycosidase TL from T. litoralis (SEQ ID NO.: 17) (protein, listed as Thermococcus litoralis)
chain: FPEKFLFGTSTAAHQVEGDNRWNDWWYYEEIGKLPYKSGKACNHWGLYREDIELMAQLGYNAYRFSIEWSRLFPEEGKFNEDAFNRYREIIELLLEKGITPNVTLHHFTSPLWFMRKGGFLKEENLKYWEKYVDKAAELLKGVKLVATFNEPMVYVMMGYLTAYWPPFVKSPFKAFKVAANLLKAHAMAYDILHGNFDVGIVKNIPIMLPASNREKDIKAAQKADNLFNWNFLDAIWSGKYKGAFGTYKTPESDVDFIGINYYTASEVRHSWNPLKFFFDAKLADLSERKTDMGWSVYPKGIYEAIAKVSRYGKPMYITENGIATLEDEWRIEFIIQHLQYVHKALNDGFDLRGYFYWSFMDNYEWAEGFRPRFGLVEVDYTTFERRPRKSGYVYGEIAREKKIKDELLAKYGLPEL

Tests used:
[1] = Steryl glycoside hydrolysis in distilled biodiesel/water mixture (Example 5); format: biochemical
Description: Steryl glycosidase activity is measured as follows: • a) Prepare a stock solution of steryl glycoside by dissolving 10 milligrams (mg) of steryl glycoside in 1 milliliter (ml) of a 3:1 mixture of tetrahydrofuran:water. • b) Add the steryl glycoside to a final concentration of 100 microgram per milliliter (μg/ml) in 1 ml of a reaction mixture containing 50 millimolar (mM) Phosphate buffer pH 6.5 and 5 μg of steryl glycosidase in an Eppendorf tube. • c) Place the reaction mixture on a shaker incubator and incubate at 80° C. for 4 h. • d) Extract the reaction mixture with 1 ml of ethyl acetate and evaporate to dryness under vacuum. • e) Re-dissolve the sample in 10 microliter (μl) of ethyl acetate • f) Analyze by thin layer chromatography (TLC) the presence of free sterols, generated as a result of steryl glycoside hydrolysis after the enzymatic treatment, using Hexane:Methanol 85:15 as running buffer and develop with ρ-anisaldehide • d) Alternatively, analyze 50 μl sample of the reaction mixture for the presence of glucose using an assay based on the Hexokinase/Glucose 6-P-dehydrogenase method: the glucose generated by steryl glycoside hydrolisis is converted by Hexokinase (or Glucokinase) into glucose 6-phosphate. Glucose 6-phosphate is further oxidized by Glucose 6-P dehydrogenase, simultaneously reducing NADP+ to NADPH. The NADPH generated is detected by fluorescence (λex: 338 nm, λem: 461 nm) and allows detection of glucose levels below 1 ppm. The assay can be adapted to microplates scale and detected in a Synergy microplate reader.
The following is an example of how to use a steryl glycosidase to remove steryl glycosides from a biodiesel mixture: • a) A 42.5 ml distilled biodiesel sample containing 100 ppm of steryl glycosides is mixed with 7.5 ml of a water solution containing 50 mM Phosphate buffer pH 6.5 and 300 μg of steryl glycosidase. […]

[2] = Steryl glycoside hydrolysis in crude biodiesel (Example 6); format: biochemical; settings: about 70 ppm steryl glycosides, 8 mg enzyme, 80° C., in 3 h

Molecule	steryl glycoside hydrolysis, dependence on emulsifier ([1]; distilled biodiesel/water, 80° C., with or without 5% ADMUL emulsifier)	steryl glycoside hydrolysis compared with LacS ([1]; Bio/water+ADMUL emulsions, data not shown)	steryl glycoside hydrolysis ([1]; without the addition of any emulsifier, in 3 h, 80° C.) [%]	steryl glycoside hydrolysis in crude biodiesel [2]
B1	could only exhibit steryl glycoside hydrolisis when reactions were performed in the presence of ADMUL™	–	–	–
B2	–	higher and faster hydrolysis	~100	could completely hydrolize steryl glycosides

Reference: patent US10287521B2, “Enzymatic removal of steryl glycosides” (KECLON S.A., priority 2012, dated 2019)
